Source: patent publication US20180318435A1 (UNITED STATES OF AMERICA AS REPRESENTED BY THE SECRETARY …, published 2018)

T1: BCMA-rFc fusion protein (extracellular domain of human BCMA, residues 1-54, fused to rabbit IgG Fc) (human; rabbit, UniProt Q02223 1-54)
T1 construct: range 1-54; also called recombinant BCMA-rFc; not shown: rabbit IgG heavy chain hinge region and Fc region (CH2 and CH3 domains), from vector pFUSE-rFc1 (InvivoGen); limits not
T1 sequence (looked up): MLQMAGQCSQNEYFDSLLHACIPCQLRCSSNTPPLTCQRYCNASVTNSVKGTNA

T2: full-length human BCMA (TNFRSF17, CD269) on the cell surface (human, UniProt Q02223 1-184)
T2 sequence (looked up): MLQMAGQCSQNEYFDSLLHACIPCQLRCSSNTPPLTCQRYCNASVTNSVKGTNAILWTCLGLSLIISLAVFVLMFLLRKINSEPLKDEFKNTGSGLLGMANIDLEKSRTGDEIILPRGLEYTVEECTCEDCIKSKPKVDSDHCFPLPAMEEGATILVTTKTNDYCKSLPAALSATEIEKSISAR

B1: BM24 anti-BCMA monoclonal antibody (antibody, V domains shown)
VH: EVQLQQSGPELVKPGASVKMSCKASGNTLTNYVIHWMKQMPGQGLDWIGYILPYNDLTKYNEKFTGKATLTSDKSSSSAYMELNSLTSEDSAVYYCTRWDWDGFFDPWGQGTTLTVSS
VL: DIVMTQSPLSLPVSLGDQASISCRSTQSLVHSNGNTHLHWYLQRPGQSPKLLIYSVSNRFSEVPDRFSASGSGTDFTLKISRVEAEDLGVYFCSQTSHIPYTFGGGTKLEIKR
notes: Mouse hybridoma mAb, IgG1 with a kappa light chain
B2: LMB70: BM306-Fab-LR-GGS immunotoxin (protein, part only; not given: Fab constant domains and toxin part)
VH: EVQLQQSGPELVKPGASVKISCKTSGYTFTEYTINWVKQSHGKSLEWIGDIYPDNYNIRYNQKFKGKATLTVDKSSSTAYMELRSLSSEDSAIYYCANHDFFVFWGQGTLVTVSA
VL: DIQMTQATSSLSASLGDRVTINCRTSQDISNHLNWYQQKPDGTVKLLIYYTSRLQSGVPSRFSGSGSGTDYSLTISNLEQEDIGTYFCHQGNTLPPTFGGGTKLEIK
modifications: Fused to a Pseudomonas exotoxin domain III variant (PE-LR-GGS), which the letters do not carry.
B3: BM306 anti-BCMA monoclonal antibody (antibody, V domains shown)
VH: B2 VH
VL: DIQMTQATSSLSASLGDRVTINCRTSQDISNHLNWYQQKPDGTVKLLIYYTSRLQSGVPSRFSGSGSGTDYSLTISNLEQEDIGTYFCHQGNTLPPTFGGGTKLEIKR
notes: as for B1

Tests used:
[1] = target: T1, BCMA-rFc fusion protein (extracellular …); experiment: bio-layer interferometry (BLITZ), BCMA-rFc immobilized by amine coupling, mAb in solution
Protocol: The binding kinetics of MAbs to BCMA were measured by bio-layer interferometry using a BLITZ (ForteBio, Menlo Park, Calif.) instrument. According to the manufacturer's instructions, BCMA-rFc were immobilized on amine-reactive second-generation biosensors by amine coupling following the activation of the sensor surface with N-hydroxysuccinimide (NHS) and N-ethyl-N-(3-dimethylaminopropyl) carbodiimide hydrochloride (EDC). Serial dilutions of MAbs were run across sensor surface at five different concentration in PBS (pH 7.4). The sensorgram data set was globally fit using the built-in BLITZ software to determine association rate constant (Kₐ), dissociation rate constant (Kd), and affinity constant (KD).
Real-time biomolecular interaction analyses were performed with BLITZ software.

[2] = target: BCMA (target of the LMB70 affinity measurement; not named, form not stated) (UniProt Q02223); experiment: affinity measurement after the first labeling; method and target not stated
[3] = target: full-length human BCMA (TNFRSF17, CD269) on the cell surface (human) (UniProt Q02223); experiment: cell-based or functional assay
[4] = target: T2, full-length human BCMA (TNFRSF17, …); experiment: cell-based or functional assay

Row | Binder | Kd [1] [pM] | koff [1] [s⁻¹] | kon [1] [M⁻¹ s⁻¹] | Bmax [2] | IC50 (ng/ml), WST assay, H929 cells [3] [ng/mL] | IC50 (ng/ml), WST assay, JJN-3 cells [3] [ng/mL] | IC50 (ng/ml), WST assay, KMS-18 cells [3] [ng/mL] | IC50 (ng/ml), WST assay, LP-1 cells [3] [ng/mL] | IC50 (ng/ml), WST assay, RPMI-8226 cells [3] [ng/mL] | IC50 (ng/ml), WST assay, U266B cells [3] [ng/mL] | IC50, WST assay, H929 cells [3] [ng/mL] | IC50 (ng/ml), WST assay, H929 cells [4] [ng/mL] | IC50 (ng/ml), WST assay, JJN-3 cells [4] [ng/mL] | IC50 (ng/ml), WST assay, RPMI-8226 cells [4] [ng/mL] | IC50 (ng/ml), WST assay, U266B cells [4] [ng/mL]
1 | B1 | < 1 | < 1e-07 | 297000 |  |  |  |  |  |  |  |  |  |  |  | 
2 | B2 |  |  |  | 2220 | 1.1 | 4 | 65 | 20 | 5.1 | 5 | 1 to 1.5 |  |  |  | 
3 | B3 | < 1 | < 1e-07 | 415000 |  |  |  |  |  |  |  |  | > 1000 | > 1000 | > 1000 | > 1000
